± gives the uncertainty stated by the source.
assay: amyloid nucleation score (Sup35N fusion, yeast selection) (log enrichment); library NNK1; higher = more nucleation; inactive = no reads after selection
How it was run: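 Psi-negative yeast expressed Sup35N fused to peptides of 20 random codons. They were induced 24 hours with 100 μM copper sulfate, grown 7 days at 30°C without adenine and uracil, and their plasmid inserts from input and output were Illumina-sequenced. The nucleation score is the DiMSum log enrichment of output over input reads, centred on the mode score of non-aggregating sequences. Sequences with under 100 input reads were excluded.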

Substance	amyloid nucleation score
DGGLCFLSMTTIIGGDTLDR	0.018 ± 0.34
DGLLTGLQDRPNSSRFKYVM	0.421 ± 0.33
DGLTLFLSRNGDYYSFTKIT	0.197 ± 0.46
DGMVALYVGYATSLVTWAK	0.65 ± 0.56
DGTNAYV	-0.986 ± 0.56
DHGFLGE	-0.172 ± 0.76
DHHQGMM	-0.213 ± 1.2
DHVDYSILNYSPMFDCVKFC	0.028 ± 0.27
DHWSASIVIPVWSERNNSFG	-0.373 ± 1.4
DHYYVVAFFRQLWRCCLFRV	inactive
DIGHFHGTDMGCNIF	inactive
DIITFHYLRTARLKGRYLFI	inactive
DIIWMFWRIINSPFFTQSVV	-0.176 ± 0.26
DIKYECIS	0.204 ± 0.34
DKAFLWQFEELVAA	-0.331 ± 0.72
DKEMECIYEYAL	0.523 ± 0.55
DKFLRWVNNVCFKSWTAIAP	0.609 ± 0.57
DKHSLKILYKCGHPSTDNGQ	1.51 ± 0.5
DKLKLNRVRSSISSYNKQNK	1.06 ± 0.28
DKPFCFILNYNSVYDCVMSV	0.331 ± 1.2
DKTECDQCIKSG	-0.691 ± 0.42
DKVMGRTQLTTCQYATGRCR	0.406 ± 0.3
DLFLRYSLAGYYAMESPADS	0.331 ± 0.33
DLFYINIVMKSFVHWVNHLH	0.416 ± 0.28
DLLFAIMMS	-0.631 ± 1.2

Substance	amyloid nucleation score
DLQSSSDNLLGYMCFSCCKH	-0.463 ± 0.98
DLSFLRNCSLYSLLGVIG	inactive
DLSSRFGRVETERGGKVKCQ	-0.299 ± 1.1
DLTGKVRYQSVLPFVASPSM	0.11 ± 0.62
DLVAVQESWTLYSLVPQLFY	-0.103 ± 0.4
DLYGRLLNWNTPYKRRWKNR	-0.491 ± 0.46
DLYQCVHPMFHVWVCVTAGW	inactive
DMCLWARG	0.732 ± 1
DMDTQEFLYCSSVKFGSTKD	5.408 ± 0.047
DMHLMSGDLGMRVRPGGSAV	0.371 ± 0.7
DMPFSDFMN	-0.096 ± 0.47
DMRYSRSCYTGCTDYYTCLG	-0.546 ± 0.4
DNAYDRVGTQGSAWFCGDCL	-0.655 ± 0.64
DNDSWYKYPCFWLCYFPACN	5.17 ± 0.052
DNNLGLSWLSILAGFGH	-1.23 ± 0.91
DNRLEYSAGLVRVTRDAKGE	-0.106 ± 0.97
DNTSCLW	inactive
DNVCRYGRKCWKRERESGQT	0.105 ± 0.42
DNWSMDVLFLWMASLGNKYR	inactive
DNYGCYCL	0.802 ± 0.72
DPFAHYISVYRDSHSVYLSS	inactive
DPGVNALVLLILKTWDRDYE	-0.638 ± 0.69
DPPTL	0.409 ± 0.42
DQIGDYLRFACSDKDYS	0.039 ± 0.76
DQVQGFISFLMLFKDFVSYG	-0.028 ± 0.33

Substance	amyloid nucleation score
DRFLCGWSLPSC	-0.656 ± 0.61
DRGMMCALVFYRHL	0.691 ± 0.56
DRRYVKLLRLYCCILECTKV	-0.18 ± 0.38
DRSRVLSSGETGYDIEVGQS	-0.033 ± 0.45
DRVLAVVYAAFAGFRRCMRR	inactive
DRWLSM	-0.025 ± 0.51
DRYSNTTFNHIA	0.779 ± 0.47
DSASL	0.514 ± 0.79
DSCVFARSIVVNSNSFEVIE	0.061 ± 0.47
DSFARYVGVLKRLARLSTYR	0.568 ± 0.72
DSGVAVQMFEQTTGDPGIEG	-0.883 ± 0.76
DSRCHSSSGDRPTLAVYT	-0.198 ± 1.7
DSRYYTDADALVDR	inactive
DSSLEVRRNRTSRLYAHFT	-0.218 ± 0.39
DSTDSVESEWNTVRSYVSLW	inactive
DSVVCRKYDVIGKCQRRGTC	0.716 ± 0.61
DSWLVAESSIHAF	-0.049 ± 1.5
DSYWILSLLWGL	-0.369 ± 0.19
DTAFMNMMLWARNYCWFSVQ	inactive
DTAWNLVQSVS	0.496 ± 0.7
DTENPSYMNVNCYWRLLFSR	0.669 ± 0.4
DTGGLYLERARQFKASMFLR	0.229 ± 0.42
DTLHSNCCGSWPYDSSKRNV	0.95 ± 0.33
DVMRYWVMRVVMPAKFKKAY	-0.244 ± 1.1
DVSRQFYFDYYNIKGLNITK	0.536 ± 0.79

Substance	amyloid nucleation score
DVWKAGSVGPRQLVRRGGRR	0.259 ± 0.81
DVYTLMGEVDELRSFRIIIR	-0.458 ± 0.27
DWCYYKRADRRTSSESSRAG	0.333 ± 0.99
DWLMMDLL	0.103 ± 1.1
DWMFCTYCVTVFESQNVAVH	0.272 ± 0.27
DWNEEACV	0.432 ± 0.57
DWNYKFMGRRLEHMCQVLM	-1.03 ± 1.1
DYDIWDAMPAQFQRITMYSV	-0.243 ± 0.36
DYEPLASDAREEDFCNARRG	-0.677 ± 0.64
DYFWSSSEGWPEFQNIKSIG	-0.07 ± 1.4
DYGAKDHFPIAITKEVMSLN	-0.394 ± 1.2
DYMDSCGYVDSATRYKVSEM	-0.241 ± 1.1
DYPPIRALVSFDCCAVSTCL	0.922 ± 0.93
DYPRSIILCWHF	-1.39 ± 0.74
DYSSSFVNCIYKKPGQGMFG	0.133 ± 0.54
DYSVYRSERMCTLRAS	-0.279 ± 0.36
DYTLMRSLESPITDLQSSSG	0.748 ± 0.88
EALLWTEGMWHSSGGLYSNV	0.261 ± 0.27
EANCLFEWSMMLRYSARDGT	0.312 ± 1.4
EAVVRRLSEDSCMELSSDCR	0.485 ± 0.52
EAYFFEFIKYLSAPAGSGGN	-0.855 ± 0.98
ECFSKFLNLRGSPLG	-0.098 ± 0.53
ECYGIR	0.893 ± 0.26
EDPVLSREGCKQVNPWILWG	0.201 ± 1.4
EDRDTLKGM	0.806 ± 0.57

Substance	amyloid nucleation score
EELTAYMSLDMQLCRNRAAM	0.055 ± 0.55
EFGRDNHVLVLWMGRAPSDM	-0.436 ± 0.55
EFKTDPDYT	0.2 ± 0.53
EFRQMVVSSGSDERGERDKG	0.052 ± 0.29
EFWWIDICSGCYLFF	6.5 ± 0.074
EFYVTCFCVRMKTKAYAPLV	0.106 ± 0.31
EGIHKR	0.324 ± 0.66
EGIIYS	-0.692 ± 1.1
EGMYC	0.058 ± 0.34
EHFMSTCKPPDGE	0.927 ± 0.84
EHGERAQGPISGMLGRKCIE	1.04 ± 0.98
EHHGGISGGNKCCSTCKSRR	0.361 ± 1
EHLVHLYKFSSAFERVGW	-0.352 ± 0.7
EHSFRNRCEAANWLVWLRVI	-0.061 ± 0.51
EIDNLHWVLVVNYPTSQFKR	-0.02 ± 0.39
EIVVIASRTASPDFIN	1.01 ± 0.74
EKRRNNTSNRSWSGSYFLDT	0.111 ± 0.28
EKSCATRLA	0.374 ± 0.29
ELASSLIVFVDFSRACELNL	4.95 ± 0.12
ELKPKAFVVLSDHRHGYKRQ	-0.076 ± 0.97
ELNDVMRSGSKG	0.992 ± 1
ELSGGA	3.75 ± 0.1
ELTGFFFCVRTSKCRIW	0.533 ± 0.46
ELTRGLWRFGAEWWATQQKT	0.364 ± 0.31
ELVSS	-0.455 ± 0.26

Substance	amyloid nucleation score
EMAELLAMRQLLRTKIH	0.265 ± 0.34
EMGSSLYTRHGNVRSLAFGW	0.242 ± 0.48
EMNVSILKHAYSQALSFARW	-0.068 ± 0.45
EMRNLNLYVLAEPNGVGNSA	inactive
ENGIGN	0.453 ± 0.22
ENPDW	1.66 ± 0.73
ENPWFMCICYGANRVHVCNG	0.539 ± 0.33
ENQFTVLSNGFDVIALFSFE	1.07 ± 0.93
EPFGLGFRRNDLSYANRVGS	-0.887 ± 1.3
EPSGLLFSTLGTSTYGYIQF	2.27 ± 0.11
EPTDYWRVY	inactive
EQAGVRVTDYVAVELLFWRF	0.826 ± 0.39
EQRVNLISVWIRGDLETPHG	0.47 ± 0.73
ERAKRSY	3.04 ± 0.069
ERFLFGSMSTYANGRCVGAY	-1.11 ± 2.4
ERTMGLSVMWAIECCLRNPG	2.05 ± 0.24
ERVLYIGFYTYVDNCFRLLK	-0.12 ± 0.34
ESFGRTISVTELSHMT	0.487 ± 0.39
ESLRDRARWGNCMQILICSL	-0.055 ± 0.55
ESLREVTLYATKSLWMNLRL	-1.83 ± 1.1
ESRCRTLKIVLCCGFLSDWP	inactive
ESTSYCKSDYLVRFVFEDGL	-0.294 ± 0.39
ETHLIGVCYNRCL	0.643 ± 0.42
ETLAFVLRFRNREDFCGGMV	1.01 ± 0.64
ETLSFGKHLPRVHAFHHVRC	-0.671 ± 1.2

Substance	amyloid nucleation score
ETSPF	-0.03 ± 0.76
EVASGVCTRIRLYSRCEWKG	2.84 ± 0.091
EVCFCEGEVKFWGKGAIFSR	-1.88 ± 1.8
EVGHFRSDVDLFWV	-1.04 ± 0.44
EVIVYKTFEDVSQRVRHNWN	1.89 ± 0.22
EVLKVSHSF	-0.009 ± 0.46
EVLNIYLHNRLNVLFTELAS	-0.884 ± 1.4
EVRSSFYPSHYYRALRDL	-1.37 ± 2.4
EVSIFGDRIHIELHLVGEVL	-1.12 ± 2.1
EWACFRGAYPAYSDLFR	-0.327 ± 0.67
EWYLIYGGTRSGLIYRSYAR	0.109 ± 0.38
EYLAFDVPNWVGFLGSLWNM	-0.064 ± 0.8
EYWGRGEVRADMWRRWIGW	1.23 ± 0.4
FASASLLFSKPESG	-1.41 ± 2.4
FASMIFSRASSSSDNIFFRN	0.361 ± 0.22
FASWFFMCRDGGLIM	-0.573 ± 0.66
FATAGKFVY	-1.23 ± 1.2
FAWLGCFSWTLNFWDKYMRG	-0.856 ± 1.4
FAYGI	-0.633 ± 0.62
FCDRNIIVCSELGKGWLWLR	1.4 ± 0.25
FCLYISTIDID	0.556 ± 0.59
